# Assay: soluble on expression in E. coli; label from the status in PepcDB or PDB records
row,Sequence,soluble on expression in E. coli
1,MQEPQARIAALLRDADDILITTHANPDGDAIGSLGAMGHVLATLGKRFCLCNVSGVPSHLSWVPLPGQVYTSFDELPFQPRLAIVLDCGDEKRPGEALRAPLADLPSINIDHHQGNPLFGTVDNWVEPQRAATGEMVAEIALALGQPLAGALGECLYLALVSDTGSFSFGNTSARVLSLAAEIVGNGLDVAALTERHDNQWSFARMQLWGRLMQEMRLAFDGTVAISVIPDALIESCGARRADLEGWASQMRKVRGVRVSVMVRGNGPEGSKVSLRSTGSDDVRAVAARFGGGGHRNAAGVEMPLPPEEASRQVVAALGEQLGLDGDGASLYVLEHHHHHH,soluble
2,MGSDKIHHHHHHMMTMRIAMISIHTSPLQQPGSGDAGGMNVYIISIARELARRGVDVDIYTRATRPSQGDVVEVESGLRVINIVAGPYEGLSKEELPTQLAAFAGGVVQFAKCHHMRYDVIHSHYWLSGQVGWLLRDLWNIPLVHTAHTLAAVKNAHRSAGDTEESEARRICEQQLVDNADILVVNTPEETNDLVRHYDANPDSVAVIAPGANVELFTPGTQRNTEQSRRCLGIPLHTKVMAFVGRLQQFKGPEVLLRAVAEMLERDPDRDMRVIMCGGPSGAAATVEHYIELTRSLGIAHRVRFLDPRPPEELVSVYQAADVVAVPSYNESFGLVAMEAQASGTPVVAARVGGLPIAVVDGETGVLVDGHDPIMWADALEQLLDDDPTRQQMGVAAVEHAANFTWAAAAEKLESVYGDAAMLDVAQCHDRYAAGSDRA,not soluble
3,NSSGVNRVVGNNLDDLALPKLAKDQTNPMTMEELTTRFLRSDSATFDGTVVEVQGFASAAADGTWRLSRYKIYCCAADAMAYTATLETSTSMSSDQWYRVRGVVRVSSAHNPQFPMIEVHNLEAIDTPTEPYL,not soluble
4,LGIAGLRYTFTFAVATAPSELLNITWYSAVSAAFNGALKFSITPLLPLGPITDERVEVSITALTPLSGVRSTSTALTPVRLCSAFAILFTDTKAEKLEFFEDTTERVDGDAVIPHTVNSETAALPTPFS,not soluble
5,HGIQLLGYARKILRFNDEACSSLMFSNLQGVLTIGASDESADTILPFLLNRVSSVYPKLALDVRVKRNAYMAEMLESQEVDLMVTTHRPSAFKALNLRTSPTHWYCAAEYILQKGEPIPLVLLDDPSPFRDMVLATLNKADIPWRLAYVASTLPAVRAAVKAGLGVTARPVEMMSPDLRVLSGVDGLPPLPDTEYLLCYDPSSNNELAQVIYQAMESYHNPWQYSPMSAPEGDDSLLIERDIE,soluble
6,MVSNPVHGLPFLPGTSFKDSTKTAFHRSQTLSYRNGYAIVRRPTVGIGGDRLQFNQLSQAELDELASKAPVLTYGQPKQAPPADFIPAHVAFDKKVLKFDAYFQEDVPMSTEEQYRIRQVNIYYYLEDDSMSVIEPVVENSGILQGKLIKRQRLAKNDRGDHYHWKDLNRGINITIYGKTFRVVDCDQFTQVFLESQGIELNPPEKMALDPYTELRKQPLRKYVTPSDFDQLKQFLTFDKQVLRFYAIWDDTDSMYGECRTYIIHYYLMDDTVEIREVHERNDGIDPFPLLMNRQRVPKVLVENAKNFPQCVLEISDQEVLEWYTAKDFIVGKSLTILGRTFFIYDCDPFTRRYYKEKFGITDLPRIDVSKREPPPVKQELPPYNGFGLVEDSAQNCFALIPKAPKKDVIKMLVNDNKVLRYLAVLESPIPEDKDRRFVFSYFLATDMISIFEPPVRNSGIIGGKYLGRTKVVKPYSTVDNPVYYGPSDFFIGAVIEVFGHRFIILDTDEYVLKYMESNAAQYSPEALASIQNHVRKREAPAPEAESKQTEKDPGVQELEALIDTIQKQLKDHSCKDNIREAFQIYDKEASGYVDRDMFFKICESLNVPVDDSLVKELLRMCSHGEGKINYYNFVRAFSN,soluble
7,MGSDKIHHHHHHMSNTAQLITPSPIGLIADITELFEKTFAHFSRTLKVNADDIPEETMSFHTWSSIDNFPTLIQKYRDEYYGDNDLKPNDKALYSLWSQWYFGLIIPPMMLLLIEYPQTIDTHHKNFKVLFHHSGRPEVVYYQLKWQSQDPGTLLERYYLLLNHHVIPIAEKIESYQGINGRLLWNNIGYLMFWYLGEFKGRLGDDLYQSIINGLFMELSLPNGQDNPLYRTVMLRNGTLQRRSCCQRNKLPGVRSCHDCPLEKPPLNLIS,not soluble
8,MSTNYEAIIIGAGQAGLAAAHELSRRGFTPGKDFLVLDSNDGPGGAWRHRWDSLTLGKAHGIADLPGLPMNRPDPKTPASTLVAGYYGAYENEFSFAVVRPVKVSRVEPTSEDPSSPLRVSSDDGREWITRMVLNATGTWTNPYVPYIPGIDKFQGKQLHTVNYRKAEDFKGKKVLVVGGGLSAVQFLLELEGLAETTWATRRPPNFTQREFDAGWGIAVERAVRERTFNGKAPASVVRTTGIPQIPDYLAGVDRGLIVSRGMFEEITPTGVVFGEPPAERSEGLGPSAGTTLAVPESWKPYPAGTHLDVDVIFWNTGFRAALRHLAPMKLRGQGRGIELIDEVSPASDARVLLVGYGSTASTVGATRAGRVAGRVAAKRLLVDVSPHVNLEHHHHHH,not soluble
9,MITIKKQEIVKLEDVLHLYQAVGWTNYTHQTEMLEQALSHSLVIYLALDGDAVVGLIRLVGDGFSSVFVQDLIVLPSYQRQGIGSSLMKEALGNFKEAYQVQLATEETEKNVGFYRSMGFEILSTYDCTGMIWINREK,soluble
10,MAHHHHHHMCSDVKFSERLTTSPAVVTGFLSPTLRKVMKATMKNSDFNDNTNNSNNMNMFQNLPATLELNPSHTIVTSIYHLKNTNQEVAKLLVQQLYDNACIAAGILEDPRSLLSKLNELLLLTARYAYHYEKKDIQENTKDQPIDVKDNTMAIDNIVNTKENNTNDDSVMKEAQSSNL,soluble
11,MKKNTSKTTMRINKQDALCTPHSHDPRDLQNMLDGGEYAPFVSPPMLESNFIQVNRRGESIYLHNRANWVTVGICFSSSTHKIPNVMLLAHLTPGAQKDTETLFKSLLTSPPAEKLVLTRFLPLQFVTLSVHDAENMSLKVKLVSGRAYYLQLCTSAYKQDTLFSQWVALISLLNQEKAKVSKVSEVSSLSGITNSTDITGSMDVTDVTTFTAILTPYMYAGTGPEHVRDSIDFPEFTDITDITDVTDLPENEVPEVPDVRIVTEVIEVREATEVTDSSDITNCSGVTVVFENNDLIRAKQEEKEKLKNILKPGCLQDTKSKRYFQTTLTPVESEANTSKEMKDKTSEEKMPDFQSTALKAEESRSLRTESNTSVLSPHIKSPSNFLKLVPHLSAPFSRE,soluble
12,DNSVDLYFLMGLSGSAQGHLSNVQTLGSDLLKALNEISRSGRIGFGSIVNMTFQHILKLTADSSQFQRELRKQLVSGKLATPKGQLDAVVQVAICLGEIGWRNGTRFLVLVTDNDFHLAKDKTLGTRQNTSDGRCHLDDGMYRSRGEPDYQSVVQLASKLAENNIQPIFVVPSRMVKTYEKLTTFIPKLTIGELSDDSSNVAQLIRNAYSKL,soluble
13,MKLNKQNLTQLAPEVKLPAYTLADTRQGIAHIGVGGFHRAHQAYYTDALMNTGEGLDWSICGVGLRSEDRKARDDLAGQDYLFTLYELGDTDDTEVRVIGSISDMLLAEDSAQALIDKLASPEIRIVSLTITEGGYCIDDSNGEFMAHLPQIQHDLAHPSSPKTVFGFICAALTQRRAAGIPAFTVMSCDNLPHNGAVTRKALLAFAALHNAELHDWIKAHVSFPNAMVDRITPMTSTAHRLQLHDEHGIDDAWPVVCEPFVQWVLEDKFVNGRPAWEKVGVQFTDDVTPYEEMKIGLLNGSHLALTYLGFLKGYRFVHETMNDPLFVAYMRAYMDLDVTPNLAPVPGIDLTDYKQTLVDRFSNQAIADQLERVCSDGSSKFPKFTVPTINRLIADGRETERAALVVAAWALYLKGVDENGVSYTIPDPRAEFCQGLVSDDALISQRLLAVEEIFGTAIPNSPEFVAAFERCYGSLRDNGVTTTLKHLLKKPV,soluble
14,MGSDKIHHHHHHMMRVFHLVLAPRLSGAEVLAKDLALDQCAEGMAVCVASLLPAHAEFAPLQDDLQRHGVQCVFPRRRHRALVKLCHLFGAVRRFRPDVIFAHATIPSFYARALPLRVPVVYVMHSATNDFERPLFRRIEHILSGRARVVIGVSEQGVTDYVQAIGPHPSMTVVPNGVDLARFSFTDGVERDGRTPQVVQIGRYAAVKNQLATVRAFSEVLMKGKDARLVLYGVVEDPDYQRAVVALAKELGIAERVVVAGPRTDVATVLSESNVFVMPSQSEAHSVAFLEALASGVPIVASKIPAFAFANGFPGVQLIDTDNVQCYAEAVIAALGQERAQRSLTGLTLRDTADRYRAIARQVSLAVPAR,not soluble
15,MGSDKIHHHHHHMITIDALGQVCPIPVIRAKKALEGLGEAGGVVAVLVDNDISRQNLQKMAEGMGYQSEYQEKDNGVIEVTIVAGEGCAVETSGTPADSGLVVAIGRNTMGEGSEELGRILLKGFIYSLRELTPPPARLLFFNSGAYLTSKDSNSIEDLKAMAAQGTIIQTCGTCINYYGITEQLAVGQVANMYDIVTAMAEAKRLINI,not soluble
16,ECPVFEPSWAEFRDPLGYIAKIRPIAEKSGICKIRPPADWQPPFAVEVDNFRFTPRIQRLNEL,not soluble
17,GPGSMTSPAQAQVHSAPSRHAHTSILSQQMLSTPAGHPVSQPDTSQAAPDAPVWRPTTVPWKPVDTQQSACSALPAKTDDAIAAHSLQWERDAAVGNPNDESGRVVSQAFAFPRWMGPPALTSTATSREEGDSPTATVPSMEERWSTFQRLAQASEATFRSMSEATARQHADVTAHQKEIAAYQESQRQLTLQQQQRLDSLTRECAQLRQTEASTKEVVAHQVERLVALESELQTTRVQLSEIRLAQAQCVEERKRLQQACKMHEVHTSELQASLQFADEVVRSMRQTVAACEREKNEALMQQYSNFESYRNNLIAAYDKRAAEARDEFAKRVESLQAGMLETVAKREEQLKASWEETATRMRHEYDELVRLGQQRRAAMDTELRERKEQLERDKEFMRVQQREEADMMEQRFRAREETLLDDIARRERELREREAVLRAAQAQQEVDVQRRLQAREAELRAAHDAALKRMADQAAAEREKLSENFMERLQQLSNAHMQQERELERMHREKEREMAQRYRLSGIDGGDRGEVRDRRATEYALASPSMAKEALLKKFETVEQRQRERSDKLRSAFSAQENELQPPL,soluble
18,MSRMIFLFLIPVVTSCIPTQQIEMPCPTDWEKFERPSGPWCVKLFVGLYLQGNRNEASARCAAEGAVLSGVQNQAELNAMTRQFTKLRYGYFWVGAMRKTSCLMSQLTATCTALNSFEWTDGSTTGTDGFIWKTGDPNNYLYNLYE,not soluble
19,MKLSRISAINWNKIQDDKDLEVWNRLTSNFWLPEKVPLSNDIPAWQTLSAAEQQLTIRVFTGLTLLDTIQNIAGAPSLMADAITPHEEAVLSNISFMEAVHARSYSSIFSTLCQTKEVDAAYAWSEENPPLQRKAQIILAHYVSDEPLKKKIASVFLESFLFYSGFWLPMYFSSRGKLTNTADLIRLIIRDEAVHGYYIGYKYQIALQKLSAIEREELKLFALDLLMELYDNEIRYTEALYAETGWVNDVKAFLCYNANKALMNLGYEALFPPEMADVNPAILAALSPNADENHDFFSGSGSSYVMGKTVETEDEDWNF,soluble
20,MSLKIDIHPLTHDPTSAWKELSKSQRVIKINTKPPAVDVPSNKVRVVCMSDTHSLTHHIKFDIPDGDIFIHAGDFTRCGKLDEVVDFNEWLKKLPHKHKLVIAGNHELSFDHTFTHPFQNASACCKKTGSTLLDEIPTLGNSKESLAEAVKTENIRQYLSSCTYLQDECVELYGLKIYGTPWQPEFCKWAFNVKRGQACLEKWEQIPENVDILVTHTPPVGHGDLCCSGVRAGCVELLATVQQRVKPKYHVFGHVHEGYGITSDGRIIFVNASTCDINYLPNNQPIVFDVTLPKGRTKDEGHHHHHH,soluble

# — the DeepSol protein solubility set
